Measurements taken from the nanobody polyreactivity screen of Harvey et al. (2022).

Assay: yeast display, Sf9 membrane polyspecificity reagent, FACS + sequencing; frameworks hold sequencing errors
In short: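 Polyreactivity labels are assigned by the sorting gate from which each nanobody was recovered. The gates were low and high (top ~1%), set on anti-HA fluorescence for expression and streptavidin fluorescence for reagent binding. Before sorting, galactose-induced (36–48 hours) yeast display cells were stained for 1 hour at 4 °C with 10% biotinylated, detergent-solubilized Sf9 membrane reagent.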

Sequence	polyreactivity (PSR sort gate)
QVQLVESGGGLVQAGGSLRISCAASGSIFVLYAMGWYRQAPGKERELVATITWSGDSTYYADSVKGRFTISRDNAKNTVYLQMNSLKPEDTAVYYCNKRIWDQYDWGQGTQVTVSS	low polyreactivity
QVQLVESGGGLVQAGGSLRISCAASGSIFYENTMGWYRQAPGKEREFVAAISRSGGSTYYADSVKGRFTISRDNAKNTVYLQMNSLKPEDTAVYYCAARSRPGYAVYYWGQGTQVTVSS	high polyreactivity
QVQLVESGGGLVQAGGSLRISCAASGSIFYGYAMGWYRQAPGKERELVAAITWSGGSTYYADSVKGRFTISRDNAKNTVYLQMNSLNPEDTAVYFCNAVSTRFRVRTSDYWGQGTQVTVSS	high polyreactivity
QVQLVESGGGLVQAGGSLRISCAASGSNQDSYTMGWYRQAPGKERELVATISTSGGSTYYADSVKGRFTISRDNAKHTVYLQLNSLKPEDTAVYYCNADDPFGPHRYNSWGQGTQVTVSS	low polyreactivity
QVQLVESGGGLVQAGGSLRISCAASGSTFDANAMGRYRQAPGKEREMVAANSYSGGTTYYADSVKGRFTISRDNAKNTVYLQMNSLKQEDTAVYYCATRKAFTAGSYNVYYGEYYWGQGTQVTVSS	low polyreactivity
QVQLVESGGGLVQAGGSLRISCAASGSTFDENAMGWYRQAPGKERELVAVISDSGGSTYYADSVKGRFTISRDNAKNTVYLQMNSLKPEDTAVYYCAKDVPPVYPTSSYDYWGQGTQVTVSS	low polyreactivity
QVQLVESGGGLVQAGGSLRISCAASGSTFDFYTMGWYRQAHGKEREMVASISWSGRTYYADSVKGRFTISRDNAKNTVYLQMTSLKPEDTAVYYCARRYVVNRDWGDDYWGQGTQVTVSS	high polyreactivity
QVQLVESGGGLVQAGGSLRISCAASGSTFDPNAMGWYRQAPGKERELVAVIDSGDGTTYYADSVKGRFTISRDIAKNTVSFQMISQKREDTAVYYCAVDESTSYYDDHEDYWGQRTQVTVSS	low polyreactivity
QVQLVESGGGLVQAGGSLRISCAASGSTFGSYVMGWYRQAPGKERELVAAICGSGGSTYYADSVKGRFTISRDNAKHTVYLQMNSLKPEDTAVYYCAAYVYFPWYGYWGQATQVTVSS	high polyreactivity
QVQLVESGGGLVQAGGSLRISCAASGSTFGVNARGWYRQAPGKERELVAGITWTGGSTYYADSVKGRFTISRDNAKNTVYVQMNSLKPEDTAVYFCAKAWYSSYYDDSEDSWGQGTQVTVSS	low polyreactivity
QVQLVESGGGLVQAGGSLRISCAASGSTFLTNTLGWYRQAPGKERELVAAITLRGGRTYYADSVKGRFTISRDNAKNTVYLQMNSLKPEDTAVYYCNARNYYYPSDRDYWGQGTQVTVSS	low polyreactivity
QVQLVESGGGLVQAGGSLRISCAASGSTFSRNAMGWYRQAPGKERELVAAISRRGDTTYYADSVKGRFTISRDNAKNTVYLQRNSLKPEDTGVYYCAASRYGYPKYGYWGQGTQVTVSS	high polyreactivity
QVQLVESGGGLVQAGGSLRISCAASGSTFSRNVMGWYRQAPGKERELVAAISRGGSTNYADSVKGRFTISRDNAKKTVYLQMNSLKTEVTAVYYCNAPRLGKFYYWGQGTQVTVSS	low polyreactivity
QVQLVESGGGLVQAGGSLRISCAASGSTFSTYAMGSYRTEPGKERELVASISNGGSTNYEDSVKGRFTISRDNAKNTVYLQMNSLKPEDTAVYYFNAESKAKYDYFGQGTQVTVSS	low polyreactivity
QVQLVESGGGLVQAGGSLRISCAASGSTFSYYTMGWYRQAPGKERELVAAISRTGGSTYYADSVKGRFTISRDNAKNTVYLQMNSLKPEDTAVYYCAADWTRGSPGMDYWVQGTQVTVSS	high polyreactivity
QVQLVESGGGLVQAGGSLRISCAASGSTFYIYSMGWYRQAPGKERELVARISGSGGSTYYADSVKVRFTISRDYAKNTVYLQMNSLKPEDTAVYYCAADDIYKYYLYYAFPYYRYDYWGLGTQVTVSS	low polyreactivity
QVQLVESGGGLVQAGGSLRISCAASGSTINRYAMGWYRQAPWKERELVAAINWRGSRTYYADSVKGRFTISRDNAKNTVYLQMNSLKPEDTAVYDCAASLGANGFQGRMYYWGQGTQVTVSS	low polyreactivity
QVQLVESGGGLVQAGGSLRISCAASGYTFGNYAMGWYRQAPGKERELVAAISWRGARTNYADSVKGRFTISRDNAKNTVYLQMNSLKPEDTAVYYCAAGYYYGYPPRDYWGQGTQVTVSS	high polyreactivity
QVQLVESGGGLVQAGGSLRISCAASGYTSIIYAMGWYRQAPGTERECVASIRGRSGSTYYADSVKGRFTISRDNAKNTVYLQMNSLKPEDTAVYYCAARARYVNWQGFDYWGQGTQVTVSS	high polyreactivity
QVQLVESGGGLVQAGGSLRISCAAYGRIFGYYALGWYRQAPGKERELVAAITSGGSTNYADSVKGRFTISRDNAKNTVYLQMNSLKPEDTAVYYCAARSWYFSWEMYYWGQGTQVTVSS	high polyreactivity
QVQLVESGGGLVQAGGSLRISCAPSGFIYSYAMGWYRQAPGKERELVASITLNGGSTYYADSVKGRFTISRDNAKNTVYLQMNSLKPEDTAVYYCNADRASLSIGGYYRLWYDYWGQGTQVTVSS	high polyreactivity
QVQLVESGGGLVQAGGSLRISCAPSGFTFGHYAMGWYRQAPGKERELVAAISYSGVRTYYADSVKGRFTISRDNAKNTVYLQMNSLKPEDTAVYYCNKYPAHYQTRRYDYWGQGTQVTVSS	high polyreactivity

Sequence	polyreactivity (PSR sort gate)
QVQLVESGGGLVQAGGSLRISCAPSGSIFESNAMGWYRQAPGKERELVADITYRGTRTYYADSVKGRFTISRDNAKNTVYLQMNSLKPEDTAVYYCAVWQDHYDWGQGTQVTVSS	low polyreactivity
QVQLVESGGGLVQAGGSLRISCAPSGSNINAYAIGWYRQSTGKERELVARITRGDGTTYYADSVKGRFTISRDNAMNTVYLQMNRLKPEDNAVYYCNRVEYYSVWGYDYWVQGTQVTVSS	low polyreactivity
QVQLVESGGGLVQAGGSLRISCAPSGSTFYKYTMGWYRQAPGKERELVAAISGSGTTTYYADSVKGRFTISRDNAKNTVYLRMNSLKPEDTAVYYCNTARGYDYGGLDYWGQGSQVTVSS	high polyreactivity
QVQLVESGGGLVQAGGSLRISCASSGRIFKINAMGWYRQAPGKERELVATITRDGRTYYADSVKGRFTISRDNAKKTVYLQMNSLKPDDTAVYYCNVRRAFSGWRGYDYWGQGTQVTVSS	high polyreactivity
QVQLVESGGGLVQAGGSLRISCASSGSIFVINAMGWYRQAPGKERELVAAIDWGGDTTYYADSVKGRFTISRDNAKITVYLQMNSLKPEDTAVYYCAADLFLWYEFEYWGQGTQVTVSS	high polyreactivity
QVQLVESGGGLVQAGGSLRISFAASGRTFFGYAMGWYRQAPGKERELVATIDGSDGSTFYADSVKGRFTISRDNAKNTVYLQMNSLKPEDTAVYYCAAENFWQSKEYDYWGQGTQVTVSS	low polyreactivity
QVQLVESGGGLVQAGGSLRISFAASGYIFYNYARRSYRQAPGKERELLAAMTRGGSTNYADSVKGRFTISRDNAQNTVYLQMNSLKPEDTAGYYCAAEEGPPWSRYDSWGQGTQVTVSS	low polyreactivity
QVQLVESGGGLVQAGGSLRISSAASGFTFTPNAKGWYRQAPGKERELVAVITWNGGTTYYADSVKGRFTISRDNAQNTVYLQMNSLKPEDTAVYYCNADGLILYDYWGHGTQVTVSS	low polyreactivity
QVQLVESGGGLVQAGGSLRISSAASGSTFFRYDLGWYRPAPGKEWELVAAITASGTRTYYADSVKGRFTISRDNAKNTVYLQMNSLKPEDTAVYYCAADSRRYGYDYWGQGYQVTVSS	high polyreactivity
QVQLVESGGGLVQAGGSLRISSAPSGITYYGNVMGWYRQAPGKERELVADISWSGGRTYYADSVKGRFTISRDNAKNTVYLQITSLKPEVTALYDCAAEGTTNRGVYASYDYWGQGTQVTVSS	low polyreactivity
QVQLVESGGGLVQAGGSLRITCAASASIYYRYAMGWNRQAPGKERELVAAITYSGGSTYYADSVKGRFTISRDNAKNPVYLQMNSLKPEDTAVYYCAKDYPPPISDYSRYYGYGYWGQGTQVTVSS	low polyreactivity
QVQLVESGGGLVQAGGSLRITCAASGLTFPPNAMGWYRQAPGKERELVAAITRSGGSTYYADSVKGRFTISRDNAKNTFYLQMNSLKPEDTAVYYCAVYLPYSQRYVHYYYWGQGPQVTVSS	high polyreactivity
QVQLVESGGGLVQAGGSLRKSCAASGSIFADKAMGWYRQAPGKERELVATISAPDGSTYYADYVKGRFTISGDNAKNTVYLQMNSLKPEDTAVYYCAASGYYILSWRYDYWGQGTQVTVSS	low polyreactivity
QVQLVESGGGLVQAGGSLRLAVLPPDLPSTLNDMGWYRQAPGKERELVAAITRGGSTNYADSVKGRFTLSRDNAKNTVYLQMNSLKPEDTAVYYCAAPYAGWRDGGDYWGQGTQVTVSS	low polyreactivity
QVQLVESGGGLVQAGGSLRLCCAASGFILLDYAKGWYRQAPGNERELVAAISWSGARTYYADSVKRRFTISRDNAKNTVYLQMNSLKPEDTAVYYCATRYRWTPYDYWGQGTQVTVSS	low polyreactivity
QVQLVESGGGLVQAGGSLRLCCAASGIIFDGYAMGWYRQAPGKERELVAGITIGDITYYADSVKGRFTISRDNAKNTVYLQMTSLKPEDTAVYYCAADSYYYQTAYDYWGQGTQVTVSS	low polyreactivity
QVQLVESGGGLVQAGGSLRLCCAASGNIFAYYAMGWYRQPPAKERELVAGISRRGGNTYYADSVKGRFTISRDNAKNTVYLQMNSLKPEDTAVYYCAAITYSGQRFDYWGQGTQVTVSS	high polyreactivity
QVQLVESGGGLVQAGGSLRLCCAASGSIFKYNAMGWYRQAPGKERELVAAITWSGGSTYYADSVKGRFTISRDNAKNTVYLQMNSLKPEDTAVYYCAAVYYYASRTSKQPYYHWGQGTQVSVSS	high polyreactivity
QVQLVESGGGLVQAGGSLRLCCAASGSNFRRNAMGLYRQAPGKERELVAAMSWTSTRTYYADSVKVRFTISRDNAKNTVYLQMNSLKPEDTAVYYCAADSNGGGFQLYSYDSGLYYWGQGTQVTVSS	high polyreactivity
QVQLVESGGGLVQAGGSLRLCCASSGSTFTYNTMGWYRQAPGKERELVAAISFSSGRTYYADSVKVRFTISRYNAINTVYLHINSLKPEDTAVYYCNARTWETLRGYDYWGQGTQVTVSS	high polyreactivity
QVQLVESGGGLVQAGGSLRLICAASGFIFFGNALGWYRQAPGKERELVAVITWSGGSTYADSVKGRFTISRDNAKNTVYLLMNSLKPEDTAVYYCAFVTPYWSFYEQVIPSNYWGQGTQVTVSS	low polyreactivity
